Data from the supplement of paper PMC10567573.

B1: BTBD1 (parent)
chain: IVGFGLYGSIHGPTDYQVNIQIIE

Variants of: B1
Test: protein stability index of a GFP-peptide fusion (GPS, HEK-293T) (PSI 1-6); higher = more stable
Conditions: c terminus: a fixed tail appended
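Also: lentivirally expressed fusions sorted by FACS into six bins by GFP to DsRed ratio, PSI derived from sequencing read proportions per bin multiplied by bin number.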

Question: For IVGFGYYGSIHGPTDYQVNIQIIE, which protein stability index is on record?
Answer: 3.48

Question: With IVGFGIYGSIHGPTDYQVNIQIIE as the variant, how does the protein stability index read?
Answer: 2.75

Question: Which protein stability index does the source give for IVGFGVYGSIHGPTDYQVNIQIIE here?
Answer: 3.11

Question: Which protein stability index does the source give for IVGFGRYGSIHGPTDYQVNIQIIE here?
Answer: 2.67

Question: For IVGFGQYGSIHGPTDYQVNIQIIE, which protein stability index is on record?
Answer: 3.25

Question: With IVGFGPYGSIHGPTDYQVNIQIIE as the variant, how does the protein stability index read?
Answer: 3.27

Question: Which protein stability index does the source give for IVGFGNYGSIHGPTDYQVNIQIIE here?
Answer: 2.56

Question: With IVGFGEYGSIHGPTDYQVNIQIIE as the variant, how does the protein stability index read?
Answer: 2.02

Question: With IVGFGAYGSIHGPTDYQVNIQIIE as the variant, how does the protein stability index read?
Answer: 3.31

Question: Which protein stability index does the source give for IVGFGDYGSIHGPTDYQVNIQIIE here?
Answer: 2.33

Question: With IVGFGTYGSIHGPTDYQVNIQIIE as the variant, how does the protein stability index read?
Answer: 2.16

Question: For IVGFGHYGSIHGPTDYQVNIQIIE, which protein stability index is on record?
Answer: 3.36

Question: With IVGFGWYGSIHGPTDYQVNIQIIE as the variant, how does the protein stability index read?
Answer: 1.76

Question: Which protein stability index does the source give for IVGFGFYGSIHGPTDYQVNIQIIE here?
Answer: 4.24

Question: Which protein stability index does the source give for IVGFGMYGSIHGPTDYQVNIQIIE here?
Answer: 1.94

Question: Which protein stability index does the source give for IVGFGGYGSIHGPTDYQVNIQIIE here?
Answer: 4.42

Question: With IVGFGLYGSIHSPTDYQVNIQIIE as the variant, how does the protein stability index read?
Answer: 3.04

Question: For IVGFGLYGSIHLPTDYQVNIQIIE, which protein stability index is on record?
Answer: 3.53

Question: Which protein stability index does the source give for IVGFGLYGSIHIPTDYQVNIQIIE here?
Answer: 1.72

Question: For IVGFGLYGSIHQPTDYQVNIQIIE, which protein stability index is on record?
Answer: 3.29

Question: With IVGFGLYGSIHYPTDYQVNIQIIE as the variant, how does the protein stability index read?
Answer: 1.89

Question: For IVGFGLYGSIHDPTDYQVNIQIIE, which protein stability index is on record?
Answer: 3.52

Question: Which protein stability index does the source give for IVGFGLYGSIHKPTDYQVNIQIIE here?
Answer: 4.19

Question: For IVGFGLYGSIHEPTDYQVNIQIIE, which protein stability index is on record?
Answer: 3.19

Question: With IVGFGLYGSIHWPTDYQVNIQIIE as the variant, how does the protein stability index read?
Answer: 2.56

Question: With IVGFGLYGSIHMPTDYQVNIQIIE as the variant, how does the protein stability index read?
Answer: 2.27

Question: Which protein stability index does the source give for IVGFGLYNSIHGPTDYQVNIQIIE here?
Answer: 2.5

Question: For IVGFGLYRSIHGPTDYQVNIQIIE, which protein stability index is on record?
Answer: 1.45

Question: For IVGFGLYPSIHGPTDYQVNIQIIE, which protein stability index is on record?
Answer: 4.75

Question: With IVGFGLYDSIHGPTDYQVNIQIIE as the variant, how does the protein stability index read?
Answer: 2.86

Question: Which protein stability index does the source give for IVGFGLYHSIHGPTDYQVNIQIIE here?
Answer: 2.61

Question: For IVGFGLYMSIHGPTDYQVNIQIIE, which protein stability index is on record?
Answer: 2.04

Question: For IVGFGLYKSIHGPTDYQVNIQIIE, which protein stability index is on record?
Answer: 2.89

Question: For IVGFGLYYSIHGPTDYQVNIQIIE, which protein stability index is on record?
Answer: 2.35

Question: For IVGFGLYLSIHGPTDYQVNIQIIE, which protein stability index is on record?
Answer: 2.81

Question: For IVGFGLYTSIHGPTDYQVNIQIIE, which protein stability index is on record?
Answer: 2.37

Question: With IVGFGLYQSIHGPTDYQVNIQIIE as the variant, how does the protein stability index read?
Answer: 3.42

Question: With IVGFGLYFSIHGPTDYQVNIQIIE as the variant, how does the protein stability index read?
Answer: 2.78

Question: For IVGFGLYISIHGPTDYQVNIQIIE, which protein stability index is on record?
Answer: 2.28

Question: With IVGFGLYGSPHGPTDYQVNIQIIE as the variant, how does the protein stability index read?
Answer: 2.78

Question: For IVGFGLYGSFHGPTDYQVNIQIIE, which protein stability index is on record?
Answer: 3.05

Question: With IVGFGLYGSKHGPTDYQVNIQIIE as the variant, how does the protein stability index read?
Answer: 1.76

Question: For IVGFGLYGSDHGPTDYQVNIQIIE, which protein stability index is on record?
Answer: 2.74

Question: Which protein stability index does the source give for IVGFGLYGSGHGPTDYQVNIQIIE here?
Answer: 5.97

Question: With IVGFGLYGSEHGPTDYQVNIQIIE as the variant, how does the protein stability index read?
Answer: 2.58

Question: Which protein stability index does the source give for IVGFGLYGSVHGPTDYQVNIQIIE here?
Answer: 2.09

Question: With IVGFGLYGSWHGPTDYQVNIQIIE as the variant, how does the protein stability index read?
Answer: 1.64

Question: For IVGFGLYGSTHGPTDYQVNIQIIE, which protein stability index is on record?
Answer: 3.32

Question: For IVGFGLYGSMHGPTDYQVNIQIIE, which protein stability index is on record?
Answer: 1.95

Question: Which protein stability index does the source give for IVGFGLYGSQHGPTDYQVNIQIIE here?
Answer: 3.45

Question: Which protein stability index does the source give for IVGFGLYGSCHGPTDYQVNIQIIE here?
Answer: 3.14

Question: For IVGFGLYGVIHGPTDYQVNIQIIE, which protein stability index is on record?
Answer: 3.54

Question: For IVGFGLYGHIHGPTDYQVNIQIIE, which protein stability index is on record?
Answer: 1.88

Question: With IVGFGLYGLIHGPTDYQVNIQIIE as the variant, how does the protein stability index read?
Answer: 3.19

Question: With IVGFGLYGIIHGPTDYQVNIQIIE as the variant, how does the protein stability index read?
Answer: 2.88

Question: With IVGFGLYGYIHGPTDYQVNIQIIE as the variant, how does the protein stability index read?
Answer: 2.58

Question: With IVGFGLYGEIHGPTDYQVNIQIIE as the variant, how does the protein stability index read?
Answer: 2.74

Question: For IVGFGLYGWIHGPTDYQVNIQIIE, which protein stability index is on record?
Answer: 2.76

Question: Which protein stability index does the source give for IVGFGLYGAIHGPTDYQVNIQIIE here?
Answer: 1.82

Question: For IVGFGLYGRIHGPTDYQVNIQIIE, which protein stability index is on record?
Answer: 2.67

Question: With IVGFGLYGTIHGPTDYQVNIQIIE as the variant, how does the protein stability index read?
Answer: 1.99

Question: Which protein stability index does the source give for IVGFGLYGQIHGPTDYQVNIQIIE here?
Answer: 2.56

Question: Which protein stability index does the source give for IVGFGLYGFIHGPTDYQVNIQIIE here?
Answer: 2.95

Question: For IVGFGLYGNIHGPTDYQVNIQIIE, which protein stability index is on record?
Answer: 3.18

Question: For IVGFGLYGSIHGPTDGQVNIQIIE, which protein stability index is on record?
Answer: 4.04

Question: For IVGFGLYGSIHGPTDNQVNIQIIE, which protein stability index is on record?
Answer: 2.41

Question: With IVGFGLYGSIHGPTDEQVNIQIIE as the variant, how does the protein stability index read?
Answer: 2.15

Question: Which protein stability index does the source give for IVGFGLYGSIHGPTDTQVNIQIIE here?
Answer: 4.3

Question: With IVGFGLYGSIHGPTDQQVNIQIIE as the variant, how does the protein stability index read?
Answer: 1.69

Question: Which protein stability index does the source give for IVGFGLYGSIHGPTDKQVNIQIIE here?
Answer: 3.23

Question: For IVGFGLYGSIHGPTDWQVNIQIIE, which protein stability index is on record?
Answer: 3.98

Question: With IVGFGLYGSIHGPTDLQVNIQIIE as the variant, how does the protein stability index read?
Answer: 2.09

Question: Which protein stability index does the source give for IVGFGLYGSIHGPTDMQVNIQIIE here?
Answer: 2.38

Question: With IVGFGLYGSIHGPTDAQVNIQIIE as the variant, how does the protein stability index read?
Answer: 2.1

Question: For IVGFGLYGSIHGPTDIQVNIQIIE, which protein stability index is on record?
Answer: 3.59

Question: Which protein stability index does the source give for IVGFGLYGSIHGPTDHQVNIQIIE here?
Answer: 1.6

Question: With IVGFGLYGSIHGPTDCQVNIQIIE as the variant, how does the protein stability index read?
Answer: 3.51

Question: With IVGFGLYGSIHGPTDDQVNIQIIE as the variant, how does the protein stability index read?
Answer: 2.5

Question: Which protein stability index does the source give for IVGFGLYGSIHGVTDYQVNIQIIE here?
Answer: 2.33

Question: For IVGFGLYGSIHGYTDYQVNIQIIE, which protein stability index is on record?
Answer: 2.98

Question: For IVGFGLYGSIHGRTDYQVNIQIIE, which protein stability index is on record?
Answer: 2.35

Question: For IVGFGLYGSIHGCTDYQVNIQIIE, which protein stability index is on record?
Answer: 2.51

Question: For IVGFGLYGSIHGITDYQVNIQIIE, which protein stability index is on record?
Answer: 4.51

Question: Which protein stability index does the source give for IVGFGLYGSIHGLTDYQVNIQIIE here?
Answer: 2.25

Question: With IVGFGLYGSIHGQTDYQVNIQIIE as the variant, how does the protein stability index read?
Answer: 3.17

Question: With IVGFGLYGSIHGTTDYQVNIQIIE as the variant, how does the protein stability index read?
Answer: 2.81

Question: With IVGFGLYGSIHGFTDYQVNIQIIE as the variant, how does the protein stability index read?
Answer: 2.72

Question: Which protein stability index does the source give for IVGFGLYGSIHGATDYQVNIQIIE here?
Answer: 2.3

Question: With IVGFGLYGSIHGMTDYQVNIQIIE as the variant, how does the protein stability index read?
Answer: 2.48

Question: Which protein stability index does the source give for IVGFGLYGSIHGWTDYQVNIQIIE here?
Answer: 2.76

Question: For IVGFGLYGSIHGDTDYQVNIQIIE, which protein stability index is on record?
Answer: 1.76

Question: Which protein stability index does the source give for IVGFGLYGSIHGGTDYQVNIQIIE here?
Answer: 1.57

Question: With IVGFGLYGSIHGPTCYQVNIQIIE as the variant, how does the protein stability index read?
Answer: 2.97

Question: Which protein stability index does the source give for IVGFGLYGSIHGPTSYQVNIQIIE here?
Answer: 3.04
